Measurements published in patent US20050260219A1, “Carboxypeptidases B from anopheles gambiae. compositions comprising them, vaccine applications and use as therapeutical targets” (INSTITUT PASTEUR, priority 2004, published 2005).
Several values for one entry are separate records, joined by “and”; a condition that tells them apart may be missing. Equal entries are not always repeated. Marks after values point to notes of the source that are not given here.

Key:
[1] = substrate: N=C(N)NCCC[C@H](NC(=O)CNC(=O)c1ccccc1)C(=O)O; assay: Carboxypeptidase activity assay on recombinant CPBAg1 with di-peptide substrates; assay type: biochemical, Anopheles gambiae; settings: other: hydrolysis of Hip-Arg, Michaelis-Menten, 0.02-10 mM substrate; pH 7.2; 25.0 °C
Method: Carboxypeptidase activity was determined using the synthetic di-peptide substrates Hippuryl-Arginine (Hip-Arg), Hippuryl-Lysine (Hip-Lys) as carboxypeptidase B substrates and Hippuryl-Phenylalanine (Hip-Phe) as carboxypeptidase A substrate. All reagents were purchased from Sigma. Activities were assayed in 20 μl E buffer (100 mM NaCl/50 mM Hepes/100 μM ZnCl2 pH 7.2) containing 1 mM Hip-Arg, Hip-Lys or Hip-Phe. The reaction was initiated by adding an equal volume of His-tagged CPBAg1 (5 ng/μl in E buffer), incubated at 25° C. for 10-40 min, and stopped by the addition of 20 μl Ninhydrin reagent (Sigma, Lyon, France). The rate of the reaction was measured by estimating the amount of released amino acids using the ninhydrin procedure (60). One unit of enzyme activity was defined as μmol of amino acids released/min.
Estimation of Km and kcat was carried out after assays over a 500-fold range of Hip-Arg concentration (0.02-10 mM). Each concentration was assayed in triplicate. The kinetic parameters were derived from iterative non-linear least square fits of the Michaelis-Menten equation using the experimental data (61). Confidence limits for the fitted values were determined by 100 Monte Carlo iterations using the experimental standard deviations on individual measurements. […]

[2] = test system: CPBAg1; assay: CPBAg1 specific ELISA titers in sera from immunized mice; assay type: in vivo; settings: Swiss mice
Method: Specific antibody titers against CPBAg1 were measured in duplicates for each mice by ELISA three weeks after the first (group 1) and the booster (group 2) immunization. The average reading at O.D. 490 nm of each group was plotted against the reciprocal sera dilution. End points were defined as the highest serial dilutions yielding an absorbance reading at 490 nm greater than 0.5. (Δ) and (□) show antibody titers from group 1 and 2 respectively in sera from immunized mice. (▴) and (▪) show antibody titers from group 1 and 2 respectively in sera from control mice.
Immunizations were performed with a recombinant CPBAg1 protein expressed in insect cells using the baculovirus expression system. Eleven 3- to 4-week-old female Swiss outbred mice (CERJ, Le Genest St-Isle, France) were injected subcutaneously with 20 μg of recombinant CPBAg1 in sterile PBS, emulsified with complete Freund's adjuvant (Sigma). […]
Microtiter plates (Immuno-plate Maxisorp, Nunc) were coated with 50 ng/well of CPBAg1 in PBS, overnight at 4° C., and saturated with 100 μl/well 0.5% gelatine (Sigma) in PBS for 1 h. […] After 10 min. incubation, the reaction was stopped with 50 μl 3N HCl and absorbance was measured at 490 nm using a microplate reader (Molecular Devices). Serum dilutions at an absorbance value of 0.5 were designated as the endpoint of ELISA titers.

[3] = test system: P. berghei; assay: Transmission-blocking assays: An. gambiae fed on CPBAg1 immunized, P. berghei infected mice; assay type: in vivo, Plasmodium berghei; settings: for Mean no. of oocysts (range): per positive midgut, day 9-11; for % of reduction R: infected mosquitoes fed on immunized versus control mice
Method: Immunizations were performed with a recombinant CPBAg1 protein expressed in insect cells using the baculovirus expression system. Eleven 3- to 4-week-old female Swiss outbred mice (CERJ, Le Genest St-Isle, France) were injected subcutaneously with 20 μg of recombinant CPBAg1 in sterile PBS, emulsified with complete Freund's adjuvant (Sigma). Eleven control mice were injected simultaneously with sterile PBS/adjuvant following the same protocol. On day 21 post-immunization, eight immunized mice and eight control mice (group 1) were challenged with P. berghei for transmission blocking assays (see below). The three other immunized mice were boosted with 10 μg of recombinant CPBAg1 formulated in incomplete Freund's adjuvant (Sigma) and the three other control mice were injected simultaneously with sterile PBS/incomplete adjuvant. These six mice, which constituted group 2, were challenged with P. berghei 21 days after the booster immunization. Sera from immunized and control mice of both groups were prepared from 100 μl blood samples collected the same day as mosquito feeding (24 days after the first and booster immunizations).
On day 21 after the first and booster immunizations, mice were peritoneally inoculated with the P. berghei ANKA strain 2.34. On day 3 after P. berghei inoculation, parasitemia and gametocytemia were determined using Giemsa stained thin blood smears, and the mice were used for mosquito feeding. In group 1, parasitemia and gametocytemia ranged from 3.2% to 6.2% and from 6,500 to 11,500 gametocytes/μl for control mice, whereas they ranged from 3% to 7.4% and from 7,500 to 13,500 gametocytes/μl for immunized mice. In group 2, they ranged from 2% to 2.9% and from 2,000 to 4,000 gametocytes/μl for control mice, whereas they ranged from 1.5% to 3.6% and from 1,000 to 2,000 gametocytes/μl for immunized mice. Each mouse was placed onto a netted cage containing 50 starved 5-day-old An. gambiae females and feeding was carried out for 15 minutes at 21° C. After mosquito feeding, mice were bled to collect sera for ELISAs experiments and fully engorged mosquito females were maintained at 21° C., 80% humidity, until dissections. Rate of infection (number of infected mosquitoes/number of dissected mosquitoes) and intensity of infection (mean number of oocysts per positive midgut) were scored on day 9-11 after blood feeding by detection of oocysts on the mosquito midgut wall.
For the data reported in Table 7 below, An. gambiae were fed on control or immunized mice from group 1 (after primary immunization) and group 2 (after booster immunization). Proportion of infected mosquitoes (rate of infection) and mean number of oocysts per positive midgut (intensity of infection) were determined on day 9-11 post feeding. R: % reduction was calculated as R %=100×[1−(% infected mosquitoes fed on immunized mice/% infected mosquitoes fed on control mice)], using the mean value from each experimental group.

[4] = test system: P. berghei PbGFPCON ANKA strain; assay: Effect of CPBAg1 immunized mice sera on parasite development (GFP-expressing P. berghei); assay type: in vivo, Plasmodium berghei
Method: Intensity of infection (number of parasites per positive midgut) by P. berghei was scored by detection of GFP-expressing parasites in midguts of mosquitoes fed on control (black bars) and immunized mice (grey bars). Gametocytemia was determined just before feeding by Giemsa staining of thin smears and by GFP fluorescence detection. Mosquitoes were dissected at 3 h, 24 h, 48 h and 9 days after blood feeding to visualize zygotes (Zyg), ookinetes (Ook), young oocysts (Ooc 48 h) and mature oocysts (Ooc day 9), respectively. Geometric mean intensity for six immunized mice was plotted as % of that for six control mice set at 100%. The table indicates the geometric mean number of parasite per midgut at each parasite life stages.
To assess the effect of anti-CPBAg1 sera on parasite development, a new group of six mice was immunized as described above and six control mice were injected with PBS/adjuvant. […] On day 3 after P. berghei inoculation, gametocytemia were determined by Giemsa staining of thin blood smears and by GFP fluorescence detection. […] Intensity of infection was scored by counting the number of zygotes and ookinetes within the mosquito midgut content, and the number of oocysts on the midgut wall. GFP fluorescence was visualized using GFP filter settings with a Zeiss Axiovert 25 fluorescence microscope.

B1: recombinant CPBAg1 (Anopheles gambiae) (protein)
chain: GSYHEFELYNVRPETAEQLSVLLKWRNGQEIEVDFWDAPKVGRSARLMVTREDHKRVEEFLEQHDIEYDLVAEDVQELLNREQRRNVEHGRRLRRDSNSRATVNFEHFWTLDEIYEYLDELAVAYNGLVRVSEIGRTHEDRPIKAITISTRGAVDQTRPIVFMDGGIHAREWAGVMSVMYMIHEFVEHSDQYAEQLSNTDYVIVPVANPDGYVYTHEQNRLWRKNRSPGNVLCYGVDLNRNFPFQWDRTTSECTNNFAGHAASSENETKALIGLMDQYKAAIRMYLAVHTYGEMILWPWGYDFLHAPNEDDLQRLGERARDALVAAGGPEYEVGNSADILYTASGATDDYAYSLGVPYSYTLELTGGGSQGFDLPAAELARVTSQTFELLKVFGQHAGTLSVTS
B1 showed a Km [1] of 2590 µM.

B2: CPBAg1: recombinant His-tagged An. gambiae carboxypeptidase B (SEQ ID NO: 2) from baculovirus/insect cells, used to immunize mice (protein, listed as Anopheles gambiae)
chain: MKRLTFVTGCLLALAFAKAGSYHEFELYNVRPETAEQLSVLLKWRNGQEIEVDFWDAPKVGRSARLMVTREDHKRVEEFLEQHDIEYDLVAEDVQELLNREQRRNVEHGRRLRRDSNSRATVNFEHFWTLDEIYEYLDELAVAYNGLVRVSEIGRTHEDRPIKAITISTRGAVDQTRPIVFMDGGIHAREWAGVMSVMYMIHEFVEHSDQYAEQLSNTDYVIVPVANPDGYVYTHEQNRLWRKNRSPGNVLCYGVDLNRNFPFQWDRTTSECTNNFAGHAASSENETKALIGLMDQYKAAIRMYLAVHTYGEMILWPWGYDFLHAPNEDDLQRLGERARDALVAAGGPEYEVGNSADILYTASGATDDYAYSLGVPYSYTLELTGGGSQGFDLPAAELARVTSQTFELLKVFGQHAGTLSVTS
modifications: His tag
With B2 the “endpoint titer of specific anti-CPBAg1 antibodies” value ([2]; group 1: single injection of 20 μg in complete Freund's adjuvant, 24 days after immunization) was ~12,150, the “endpoint titer of specific anti-CPBAg1 antibodies” value ([2]; group 2: second injection on day 21) was ~36,450 and the “Rate of infection % (number of dissected mosquitoes)” value (“Rate of infection %” below) ([3]; Group 1 (primary immunization), individual immunized mice Im 1-Im 8, day 9-11 post feeding) was 9.4 (32)* % and 0 (20)* % and 43.3 (30)* % and 31.2 (32)* % and 41.2 (17)* % and 38.8 (18)* % and 50 (30)* % and 10.5 (38)* %. The “Mean no. of oocysts (range)” value ([3]; Group 1, individual immunized mice Im 1-Im 8) was 2.5 (1-5)* and 0* and 7.16 (1-56) and 3.7 (1-70) and 5.4 (1-27) and 5.8 (1-32) and 6.7 (1-117) and 3.3 (1-15), the “% of reduction R” value ([3]; Group 1) was 63% and 63.2% and the “Rate of infection %” value ([3]; Group 2 (booster immunization), individual immunized mice Im 9-Im 11, day 9-11 post feeding) was 77.4 (31)* % and 26.6 (30)* % and 36.6 (30)* %. The “Mean no. of oocysts (range)” value ([3]; Group 2, individual immunized mice Im 9-Im 11) was 23.7 (1-120) and 6.2 (3-10)* and 24.3 (6-100), the “% of reduction R” value ([3]; Group 2) was 51% and 50.6% and the “Mean no. of oocysts” value ([3]; Mean Group 1, immunized mice) was 5.3. The “Rate of infection %” value ([3]; Mean Group 1, immunized mice) was 28.1 (217)* %, the “Mean no. of oocysts” value ([3]; Mean Group 2, immunized mice) was 18.6* and the “Rate of infection %” value ([3]; Mean Group 2, immunized mice) was 47.2 (91)* %. For the same molecule, the “reduction of mean infection intensity versus mosquitoes fed on control mice” value ([4]; 3 h PBM (zygotes)) was 40% and the “reduction of mean infection intensity versus mosquitoes fed on control mice” value ([4]; day 9 PBM (mature oocysts)) was 65%.
